Test results from publication PMC5798830, “Hexons from adenovirus serotypes 5 and 48 differentially protect adenovirus vectors from neutralization by mouse and human serum” (PLoS ONE, 2018).

Key:
[1] = target: T1, mouse coagulation factor X (mouse); assay: SPR; Biacore T200; about 1,200 reference units of Ad5.0, Ad5:H48 or Ad48 particles immobilised on a CM5 chip; FX as analyte at four concentrations (max 42 nM for Ad5.0 and Ad5:H48, 212 nM for Ad48); 10 mM HEPES, 150 mM NaCl, 1 mM CaCl2, 0.5 mM MgCl2, 0.1% BSA, 0.05% polysorbate 20, pH 7.4; 50 uL/min; global fit to a 1:1 kinetic model; conditions: both partners purified
T1 construct: also called mouse FX; FX; source: bought: Haematologic Technologies, Inc

[2] = target: T2, human coagulation factor X (human); assay: as above; conditions: both partners purified
T2 construct: Probably plasma zymogen with Gla residues in the light chain (surmised); also called human FX; FX; source: bought: Haematologic Technologies, Inc

B1: Ad5.0 vector (adenovirus serotype 5 vector with a wild-type Ad5 capsid) (complex)
chain: ATPSMMPQWSYMHISGQDASEYLSPGLVQFARATETYFSLNNKFRNPTVAPTHDVTTDRSQRLTLRFIPVDREDTAYSYKARFTLAVGDNRVLDMASTYFDIRGVLDRGPTFKPYSGTAYNALAPKGAPNPCEWDEAATALEINLEEEDDDNEDEVDEQAEQQKTHVFGQAPYSGINITKEGIQIGVEGQTPKYADKTFQPEPQIGESQWYETEINHAAGRVLKKTTPMKPCYGSYAKPTNENGGQGILVKQQNGKLESQVEMQFFSTTEATAGNGDNLTPKVVLYSEDVDIETPDTHISYMPTIKEGNSRELMGQQSMPNRPNYIAFRDNFIGLMYYNSTGNMGVLAGQASQLNAVVDLQDRNTELSYQLLLDSIGDRTRYFSMWNQAVDSYDPDVRIIENHGTEDELPNYCFPLGGVINTETLTKVKPKTGQENGWEKDATEFSDKNEIRVGNNFAMEINLNANLWRNFLYSNIALYLPDKLKYSPSNVKISDNPNTYDYMNKRVVAPGLVDCYINLGARWSLDYMDNVNPFNHHRNAGLRYRSMLLGNGRYVPFHIQVPQKFFAIKNLLLLPGSYTYEWNFRKDVNMVLQSSLGNDLRVDGASIKFDSICLYATFFPMAHNTASTLEAMLRNDTNDQSFNDYLSAANMLYPIPANATNVPISIPSRNWAAFRGWAFTRLKTKETPSLGSGYDPYYTYSGSIPYLDGTFYLNHTFKKVAITFDSSVSWPGNDRLLTPNEFEIKRSVDGEGYNVAQCNMTKDWFLVQMLANYNIGYQGFYIPESYKDRMYSFFRNFQPMSRQVVDDTKYKDYQQVGILHQHNNSGFVGYLAPTMREGQAYPANFPYPLIGKTAVDSITQKKFLCDRTLWRIPFSSNFMSMGALTDLGQNLLYANSAHALDMTFEVDPMDEPTLLYVLFEVFDVVRVHRPHRGVIETVYLRTPFSAGNATT
**Q.** B1 was tested. Which Kd [1] did it give?
**A.** Its Kd is 420 pM.

**Q.** And the Kd [2]?
**A.** The Kd was 820 pM.
